For the assay, the target named is T1, TROP2蛋白 (TROP2 protein, SEQ ID NO:27) expressed on transduced cells (human, UniProt P09758 27-323).
T1 construct: also called CHO-K1-TROP2细胞; A375-TROP2细胞
T1 sequence: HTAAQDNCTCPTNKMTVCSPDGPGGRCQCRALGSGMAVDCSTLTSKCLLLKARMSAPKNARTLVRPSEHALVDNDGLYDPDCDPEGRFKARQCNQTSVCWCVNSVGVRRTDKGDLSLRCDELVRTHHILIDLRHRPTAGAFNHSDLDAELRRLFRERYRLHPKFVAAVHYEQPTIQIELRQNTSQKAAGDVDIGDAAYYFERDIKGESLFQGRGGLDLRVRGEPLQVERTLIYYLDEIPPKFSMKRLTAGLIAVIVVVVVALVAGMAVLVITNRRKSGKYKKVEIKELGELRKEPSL
Kind of assay: flow cytometry on CHO-K1-TROP2 cells, Alexa-647 rat anti-human Fc detection.

B1: CD3×TROP2双特异性抗体 (CD3×TROP2 bispecific antibody) (bispecific antibody, human IgG1, kappa, L234A L235A)
chain: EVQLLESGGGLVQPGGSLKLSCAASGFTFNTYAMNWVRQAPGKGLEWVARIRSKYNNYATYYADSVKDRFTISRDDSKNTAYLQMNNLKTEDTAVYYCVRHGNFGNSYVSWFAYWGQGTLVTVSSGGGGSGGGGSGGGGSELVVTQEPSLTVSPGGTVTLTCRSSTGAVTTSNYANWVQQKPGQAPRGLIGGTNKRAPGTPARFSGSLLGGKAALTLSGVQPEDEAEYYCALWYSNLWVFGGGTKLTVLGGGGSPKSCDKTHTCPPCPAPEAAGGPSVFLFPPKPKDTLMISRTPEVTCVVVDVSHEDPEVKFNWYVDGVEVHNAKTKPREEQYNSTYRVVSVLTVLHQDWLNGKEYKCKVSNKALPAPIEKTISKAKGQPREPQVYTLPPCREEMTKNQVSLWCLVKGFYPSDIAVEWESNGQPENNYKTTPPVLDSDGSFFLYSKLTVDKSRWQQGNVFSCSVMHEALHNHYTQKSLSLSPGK
heavy: QVQLQQSGSELKKPGASVKVSCKASGYTFTNYGMNWVKQAPGQGLKWMGWINTYTGEPTYTDDFKGRFAFSLDTSVSTAYLQISSLKADDTAVYFCARGGFGSSYWYFDVWGQGSLVTVSSASTKGPSVFPLAPSSKSTSGGTAALGCLVKDYFPEPVTVSWNSGALTSGVHTFPAVLQSSGLYSLSSVVTVPSSSLGTQTYICNVNHKPSNTKVDKKVEPKSCDKTHTCPPCPAPEAAGGPSVFLFPPKPKDTLMISRTPEVTCVVVDVSHEDPEVKFNWYVDGVEVHNAKTKPREEQYNSTYRVVSVLTVLHQDWLNGKEYKCKVSNKALPAPIEKTISKAKGQPREPQVCTLPPSREEMTKNQVSLSCAVKGFYPSDIAVEWESNGQPENNYKTTPPVLDSDGSFFLVSKLTVDKSRWQQGNVFSCSVMHEALHNHYTQKSLSLSPGK
light: DIQLTQSPSSLSASVGDRVSITCKASQDVSIAVAWYQQKPGKAPKLLIYSASYRYTGVPDRFSGSGSGTDFTLTISSLQPEDFAVYYCQQHYITPLTFGAGTKVEIKRTVAAPSVFIFPPSDEQLKSGTASVVCLLNNFYPREAKVQWKVDNALQSGNSQESVTEQDSKDSTYSLSSTLTLSKADYEKHKVYACEVTHQGLSSPVTKSFNRGEC
notes: Fc carries L234A/L235A; also called CD3×TROP2重组双特异抗体; CD3×TROP2抗体
On to B1, for which the binding result is given as “binds”.
